# Experimental data as given in publication PMC5223209, “New insights into the GINS complex explain the controversy between existing structural models” (Scientific Reports, 2017).
# B1: S. cerevisiae GINS complex (complex)
# chain 1: MDINIDDILAELDKETTAVDSTKITQGSSSTTHRDANTIVGSSLDLNDKTQIYVSPQQDFSDLMKSWKNERCSPELLPYPHQLMKRLLNRISMQSQLIENISMGFLDMQNASNANPPMPNESKLPLLCMETELERLKFVIRSYIRCRLSKIDKFSLYLRQLNEDENSLISLTDLLSKDEIKYHDTHSLIWLKLVNDSILKYMPEELQAINDTEGSVNMIDEPDWNKFVFIHVNGPPDGKWNEDPLLQENEFGKPCYTVTIPDLKEEVELTIGSIYVMRYEVIRDLLRDDKVALI
# chain 2: MYGDLGNKLVLEAKRTKQLYARSNQDVNLPMYHEDIIRNILKEVSNLRKNTEYLKEQQQLGMLDDKVAKCQYFVTLLCMERNKRCLLAYQRLRTDILDSMAWNNNGLDLMSSITFSQQDTNNLSHQEQEYLKEYCDLITDLKSGDLVDIDLSGSLVPPSDVFIDVRVLKDAGEIQTEYGVFNLIKDSQFFVRQSDVERLIQQGYLQKI
# chain 3: MSLPAHLQQTFSPEEIQFIVENEPIKIFPRITTRQKIRGDDRGTGNHTRWQLITTDDKALNNMVAMRSTEVVLWIALLLKQQSKCSIVAPQWLTTKELDRKIQYEKTHPDRFSELPWNWLVLARILFNKAKDDFHDPIHELRGKIQDLREIRQIKVLKGLKYLNESHLQLDNLSLLEINELRPFITEIMDKLREIHTASLTAGTENDEEEFNI
# chain 4: MGYYDIDDVLADGTEFPCKFQYDIPGLGYLENNPGRPITKNTKLSLPLWLARILAIVGGDEALVDEEPVPFVELLPPDMFSTKVMNAIKTDPVALDLHSINSHFFSLAIKWIMLFSEKELANVVSELLLQRAQELNHHASSLSIDLNADSTGKNSANTNIATSTFLLKLEEMEKEIYKKSHESYKDTKRWMFKK
# notes: Sld5 subunit of the S. cerevisiae GINS complex; Psf1 subunit of the S. cerevisiae GINS complex; Psf2 subunit of the S. cerevisiae GINS complex; Psf3 subunit of the S. cerevisiae GINS complex; details may be in the Supplementary Information; also called yeast GINS complex; copies: + + +
# Molecular target: the molecule itself
# Experiment: negative-stain electron microscopy; gel-filtration fractions of the low and the high MW peak stained and visualised by EM
protein,measurement,value
B1,binding result,binds
